Assay results published in patent US20260285931 (published 2026).

T1: CD127-Fc (IL-7Ralpha Fc) (human, UniProt P16871)
T1 chain: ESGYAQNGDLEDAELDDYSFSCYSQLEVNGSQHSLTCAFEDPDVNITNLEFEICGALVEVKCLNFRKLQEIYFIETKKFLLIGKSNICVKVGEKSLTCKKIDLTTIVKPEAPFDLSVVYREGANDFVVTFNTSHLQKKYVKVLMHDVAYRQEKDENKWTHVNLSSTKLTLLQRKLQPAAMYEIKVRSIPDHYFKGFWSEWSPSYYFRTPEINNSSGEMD


Target: T1, CD127-Fc (IL-7Ralpha Fc)
Assay: BLI

| Kd [nM] | Binder |
| --- | --- |
| 39.3 | IL-7_s11 (designed binder) KKLNDLCFLKRLLQEIKTCWNKKVGSKCSKHPEAKRMPCAEDYLKQYESVLMVSIDQLLDSMKEIGSNCLNNEFNFFKRHICDANKECMFLFRAARKLRQFLKMQSTGDFDLHLLKVSEGTTILLQSTGCS |
| 49.3 | IL-7_s9 (designed binder) KKLNDLCFLKRLLQEIKTCWNKICSAAADPHECYKQYESVLMVSIDQLLDSMKEIGSNCLNNEFNFFKRHICDANKECMFLFRAARKLRQFLKMQSTGDFDLHLLKVSEGTTILLQSTGCS |
| 31.9 | IL-7_s13 (designed binder) KKLNDLCFLKRLLQEIKTCWNKILVEKCSKADDKETCFAEDGKQYESVLMVSIDQLLDSMKEIGSNCLNNEFNFFKRHICDANKECMFLFRAARKLRQFLKMQSTGDFDLHLLKVSEGTTILLQSTGCS |
| 25.9 | IL-7_s12 (designed binder) KKLNDLCFLKRLLQEIKTCWNKLHEKTPVSDRVTKQYESVLMVSIDQLLDSMKEIGSNCLNNEFNFFKRHICDANKECMFLFRAARKLRQFLKMQSTGDFDLHLLKVSEGTTILLQSTGCS |
| 33.4 | IL-7_s8 (designed binder) KKLNDLCFLKRLLQEIKTCWNKECSEKPLLEKSHCIKQYESVLMVSIDQLLDSMKEIGSNCLNNEFNFFKRHICDANKECMFLFRAARKLRQFLKMQSTGDFDLHLLKVSEGTTILLQSTGCS |
| 3.6 | IL-7_s13a (designed binder) KKLNDLCFLKRLLQEIKTCWNKICSKADDKETCKQYESVLMVSIDQLLDSMKEIGSNCLNNEFNFFKRHICDANKECMFLFRAARKLRQFLKMQSTGDFDLHLLKVSEGTTILLQSTGCS |
| 35.3 | IL-7_s10 (designed binder) KKLNDLCFLKRLLQEIKTCWNKYTKKVPQVSTPTLVQYESVLMVSIDQLLDSMKEIGSNCLNNEFNFFKRHICDANKECMFLFRAARKLRQFLKMQSTGDFDLHLLKVSEGTTILLQSTGCS |
| 34.6 | IL-7_s10a (designed binder) KKLNDLCFLKRLLQEIKTCWNKYTKKVPQVSTPTLKQYESVLMVSIDQLLDSMKEIGSNCLNNEFNFFKRHICDANKECMFLFRAARKLRQFLKMQSTGDFDLHLLKVSEGTTILLQSTGCS |

The next lines start with the binder.

| Binder | Kd [nM] |
| --- | --- |
| IL-7_s4 (designed binder) KKLNDLCFLKRLLQEIKTCWNKIAFTECSQAADKAACLLPKLDEYESVLMVSIDQLLDSMKEIGSNCLNNEFNFFKRHICDANKECMFLFRAARKLRQFLKMQSTGDFDLHLLKVSEGTTILLQSTGCS | 33.6 |
| IL-7_s1 (designed binder) KKLNDLCFLKRLLQEIKTCWNKIFAQYLQQSPFEDHKQYESVLMVSIDQLLDSMKEIGSNCLNNEFNFFKRHICDANKECMFLFRAARKLRQFLKMQSTGDFDLHLLKVSEGTTILLQSTGCS | 1.89 |
| IL-7_s4a (designed binder) KKLNDLCFLKRLLQEIKTCWNKRYKAAFTECSQAADKAACLLPKLDELKQYESVLMVSIDQLLDSMKEIGSNCLNNEFNFFKRHICDANKECMFLFRAARKLRQFLKMQSTGDFDLHLLKVSEGTTILLQSTGCS | 14.5 |
| IL-7_s6 (designed binder) KKLNDLCFLKRLLQEIKTCWNKILSQRFPKAEFAEVKQYESVLMVSIDQLLDSMKEIGSNCLNNEFNFFKRHICDANKECMFLFRAARKLRQFLKMQSTGDFDLHLLKVSEGTTILLQSTGCS | 17.1 |
| IL-7_s2 (designed binder) KKLNDLCFLKRLLQEIKTCWNKICSAKQEPERNECFKQYESVLMVSIDQLLDSMKEIGSNCLNNEFNFFKRHICDANKECMFLFRAARKLRQFLKMQSTGDFDLHLLKVSEGTTILLQSTGCS | 10.6 |
| IL-7_s7 (designed binder) KKLNDLCFLKRLLQEIKTCWNKIVHTECSHGDLLECADDRKQYESVLMVSIDQLLDSMKEIGSNCLNNEFNFFKRHICDANKECMFLFRAARKLRQFLKMQSTGDFDLHLLKVSEGTTILLQSTGCS | 56.7 |
| IL-7 wt-degly (protein) DCDIEGKDGKQYESVLMVSIDQLLDSMKEIGSNCLNNEFNFFKRHICDANKEGMFLFRAARKLRQFLKMQSTGDFDLHLLKVSEGTTILLQCTGQVKGRKPAALGEAQPTKSLEEQKSLKEQKKLNDLCFLKRLLQEIKTCWNKILMGTKEH | 64.7 |
| IL-7_s5 (designed binder) KKLNDLCFLKRLLQEIKTCWNKILQKFGERAAKQYESVLMVSIDQLLDSMKEIGSNCLNNEFNFFKRHICDANKECMFLFRAARKLRQFLKMQSTGDFDLHLLKVSEGTTILLQSTGCS | 7.57 |
